In patent publication US20210388087A1 (Chugai, published 2021):
Where a chain is given by its changes, count along the chain named. Values belong to the binder of their own block, whether it stands above or below them.

What was measured:
[1] = biological target: T1, biotin-labeled human CD137 fused to human IgG1 Fc fragment (human, UniProt Q07011 24-186, biotin-labeled); test: bead ELISA, 1250 ng IgG, S/N over biotin-human Fc
T1 construct: also called human CD137-Fc; biotin-human CD137-Fc; not shown: human IgG1 Fc fragment

[2] = biological target: T2, biotin-labeled cynomolgus monkey CD137 fused to human IgG1 Fc fragment (cynomolgus monkey; human, UniProt Q07011 24-186, limits assumed, biotin-labeled); test: ELISA on streptavidin beads
T2 construct: also called cyno CD137-Fc; not shown: human IgG1 Fc fragment
T2 chain: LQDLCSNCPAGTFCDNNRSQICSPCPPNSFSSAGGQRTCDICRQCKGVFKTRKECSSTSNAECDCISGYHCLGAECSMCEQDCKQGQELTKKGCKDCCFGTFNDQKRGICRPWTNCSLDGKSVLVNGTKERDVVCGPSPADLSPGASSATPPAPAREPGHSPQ

Human CD3eg linker = biological target: T3, Human CD3eg linker (human); test: SPR (Biacore T200), 37 degrees C, antibody captured by anti-human Fc on CM4 chip, recombinant human CD3 as analyte, 1:1 model
T3 construct: also called recombinant human CD3
T3 chain: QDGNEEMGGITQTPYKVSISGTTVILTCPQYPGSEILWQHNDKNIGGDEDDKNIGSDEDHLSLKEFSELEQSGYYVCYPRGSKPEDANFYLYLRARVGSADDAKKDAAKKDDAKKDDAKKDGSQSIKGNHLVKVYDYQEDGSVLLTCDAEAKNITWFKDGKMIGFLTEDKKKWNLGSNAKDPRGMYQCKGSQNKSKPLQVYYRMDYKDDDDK
Protocol: (§1) (15-2) Evaluation of the Binding of GPC3/CD3/Human CD137 Trispecific Antibodies Binding Affinity of Trispecific Antibodies to Human CD3 and CD137 were Assessed at 37 Degrees C. Using Binding affinity of trispecific antibodies to human CD3 and CD137 were assessed at 37 degrees C. using Biacore T200 instrument (GE Healthcare). Anti-human Fc antibody (GE Healthcare) was immobilized onto all flow cells of a CM4 sensor chip using amine coupling kit (GE Healthcare). Antibodies were captured onto the anti-Fc sensor surfaces, then recombinant human CD3 or CD137 was injected over the flow cell. All antibodies and analytes were prepared in ACES pH 7.4 containing 20 mM ACES, 150 mM NaCl, 0.05% Tween 20, 0.005% NaN3. Sensor surface was regenerated each cycle with 3M MgCl2.

Human CD137 ECD [3] = biological target: T4, Human CD137 ECD (human); test: SPR (Biacore T200), 37 degrees C, antibody captured by anti-human Fc on CM4 chip, recombinant human CD137 as analyte, 1:1 model; 37 degrees C
T4 construct: also called recombinant human CD137
Protocol: as §1

Human CD137 ECD [4] = biological target: T4, Human CD137 ECD; test: SPR (Biacore T200), 37 degrees C, antibody captured by anti-human Fc on CM4 chip, recombinant human CD137 as analyte, 1:1 model
Protocol: as §1

T4 sequence (chain, as listed by the source limits assumed): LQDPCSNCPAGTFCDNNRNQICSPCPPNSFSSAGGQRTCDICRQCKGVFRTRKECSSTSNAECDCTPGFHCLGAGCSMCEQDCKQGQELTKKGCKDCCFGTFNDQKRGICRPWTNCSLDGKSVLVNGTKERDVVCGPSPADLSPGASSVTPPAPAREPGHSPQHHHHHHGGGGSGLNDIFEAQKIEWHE
T1 sequence (Q07011 24-186 limits assumed): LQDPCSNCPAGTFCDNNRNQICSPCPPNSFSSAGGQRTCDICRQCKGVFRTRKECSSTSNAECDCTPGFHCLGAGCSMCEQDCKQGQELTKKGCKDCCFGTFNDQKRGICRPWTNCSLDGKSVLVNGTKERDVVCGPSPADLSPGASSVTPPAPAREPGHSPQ

binding result [1]: binds
B1: dBBDu126 (antibody, human IgG1, V domains shown)
VH: QVQLVESGGGLVQPGRSLRLSCAASGFTFSIAWMHWVRQAPGKGLEWVAQIKDRVNAYEAYYAPSVKGRFTISRDDSKNSIYLQMNSLKTEDTAVYYCRYVHYASYYDLLGYGGVDAWGQGTTVTVSS
VL: DIVMTQSPLSLPVTPGEPASISCRSSQSLVHSNRNTYLHWYQQKPGQAPRLLIYKVSNRFSGVPDRFSGSGSGTDFTLKISRVEAEDVGVYYCGQGTQVPYTFGQGTKLEIK
notes: human IgG1; GLS3000 light chain; also called DADU01_3 #001; DADU01_3_#001
binding result [2]: no binding (tested: 25 micro L of 50 ng/micro L purified IgG)

Kd (Human CD3eg linker): 19.7 nM | koff (Human CD3eg linker): 0.00161 s⁻¹ | kon (Human CD3eg linker): 81800 M⁻¹ s⁻¹ | kon (Human CD137 ECD [3]): 547000 M⁻¹ s⁻¹ | Kd (Human CD137 ECD [4]): 37.7 nM | koff (Human CD137 ECD [4]): 0.0206 s⁻¹
B2: GPC3/CD137 × CD3 trispecific antibody (antibody, V domains shown)
VH 1: QVQLQQWGAGLLKPSETLSLTCAVYGGSFSGYYWSWIRQSPEKGLEWIGEINHGGYVTYNPSLESRVTISVDTSKNQFSLKLSSVTAADTAVYYCARDYGPGNYDWYFDLWGRGTLVTVSS
VL 1: EIVLTQSPATLSLSPGERATLSCRASQSVSSYLAWYQQKPGQAPRLLIYDASNRATGIPARFSGSGSGTDFTLTISSLEPEDFAVYYCQQRSNWPPALTFGGGTKVEIK
VH 2: QVQLVESGGGLVQPGRSLRLSCAASGFTFSNAWMHWVRQAPGKGLEWVAQIKDRANSYNTYYAESVKGRFTISRDDSKNSIYLQMNSLKTEDTAVYYCRYVHYTTYAGSSFSYGVDAWGQGTTVTVSS
VL 2: B1 VL with S28P
VH 3: QVQLVQSGAEVKKPGASVTVSCKASGYTFTDYEMHWIRQPPGEGLEWIGAIDGPTPDTAYSEKFKGRVTLTADKSTSTAYMELSSLTSEDTAVYYCTRFYSYTYWGQGTLVTVSS
VL 3: B1 VL with S28P
notes: Trispecific mAb AB made by Fab-arm exchange from mAb A (CrossMab, two Fv per arm: Fv A1 and Fv A2) and mAb B (conventional IgG, Fv B); Fc gamma R-silent, deglycosylated Fc; also called GPC3/CD137xCD3
